In the Human Domainome abundance scans (Beltran et al. 2025):
± gives the uncertainty stated by the source.

B1: Chromodomain-helicase-DNA-binding protein 5, residues 338 to 390; numbered along this chain, Q8TDI0 (parent)
chain: YETDHQDYCEVCQQGGEIILCDTCPRAYHLVCLDPELEKAPEGKWSCPHCEKE

Variants of: B1
Assay: abundance fitness (aPCA) (normalised: wild type 0, dead -1); higher = more abundant; growth selection in yeast, the domain comes from the species named
Conditions: Homo sapiens

Variant	abundance fitness
D7H	-0.296 ± 0.36
D7N	-0.129 ± 0.097
D7F	-0.725 ± 0.4
D7T	0.112 ± 0.15
D7E	-0.255 ± 0.16
D7C	-0.669 ± 0.24
D7Q	0.176 ± 0.17
D7R	-0.154 ± 0.14
D7A	-0.045 ± 0.15
D7G	-0.252 ± 0.12
D7V	0.096 ± 0.12
D7Y	-0.676 ± 0.39
D7M	0.167 ± 0.21
D7K	-0.313 ± 0.15
D7I	-0.317 ± 0.28
D7S	-0.257 ± 0.16
D7L	-0.527 ± 0.21
D7W	-0.613 ± 0.18
E10K	0.2 ± 0.12
E10T	-0.004 ± 0.14
E10R	0.043 ± 0.11
E10G	0.015 ± 0.11
E10N	0.338 ± 0.18
E10W	0.234 ± 0.14

Variant	abundance fitness
E10A	-0.064 ± 0.1
E10M	-0.07 ± 0.18
E10S	-0.112 ± 0.11
E10F	0.256 ± 0.17
E10D	-0.14 ± 0.18
E10L	0.175 ± 0.098
E10Q	0.024 ± 0.13
E10I	0.188 ± 0.18
E10H	-0.394 ± 0.2
E10Y	0.209 ± 0.14
E10C	-0.001 ± 0.17
V11K	0.481 ± 0.13
V11C	0.179 ± 0.17
V11G	0.376 ± 0.094
V11D	0.018 ± 0.15
V11Y	0.033 ± 0.14
V11S	0.27 ± 0.09
V11M	0.459 ± 0.11
V11W	-0.038 ± 0.13
V11T	0.341 ± 0.11
V11L	0.245 ± 0.093
V11E	0.397 ± 0.1
V11H	0.691 ± 0.15
V11P	0.061 ± 0.11

Variant	abundance fitness
V11A	0.095 ± 0.1
V11N	-0.013 ± 0.14
Q14D	-0.004 ± 0.17
Q14C	-0.378 ± 0.12
Q14A	-0.093 ± 0.17
Q14F	-0.295 ± 0.14
Q14G	0.118 ± 0.12
Y8T	-0.088 ± 0.14
Y8C	-0.337 ± 0.23
Y8D	-0.199 ± 0.25
Y8M	0.102 ± 0.13
Y8E	0.306 ± 0.12
Y8R	0.211 ± 0.1
Y8I	0.241 ± 0.16
Y8S	0.014 ± 0.11
Y8K	-0.067 ± 0.13
Y8P	0.33 ± 0.13
Y8G	0.078 ± 0.11
Y8H	0.349 ± 0.17
Y8F	-0.204 ± 0.25
Y8N	0.227 ± 0.18
Y8Q	0.437 ± 0.15
Y8A	0.142 ± 0.089
Y8V	0.054 ± 0.1

Variant	abundance fitness
Y8L	0.06 ± 0.1
Y8W	-0.111 ± 0.14
H5W	-0.038 ± 0.1
H5P	0.124 ± 0.13
H5L	0.375 ± 0.11
H5Q	-0.046 ± 0.16
H5S	0.293 ± 0.1
H5D	-0.81 ± 0.22
H5E	0.024 ± 0.13
H5K	0.021 ± 0.14
H5A	0.488 ± 0.12
H5V	0.464 ± 0.088
H5M	0.497 ± 0.12
H5F	-0.144 ± 0.3
H5T	0.116 ± 0.12
H5I	0.079 ± 0.17
H5C	0.394 ± 0.21
H5N	-0.072 ± 0.17
H5R	0.192 ± 0.089
H5G	0.185 ± 0.084
Q13V	0.056 ± 0.096
Q13T	-0.185 ± 0.11
Q13K	-0.233 ± 0.15
Q13P	-0.097 ± 0.14

Variant	abundance fitness
Q13E	-0.091 ± 0.14
Q13L	-0.109 ± 0.091
Q13F	-0.258 ± 0.15
Q13S	0.157 ± 0.094
Q13R	0.163 ± 0.085
Q13H	-0.268 ± 0.23
Q13A	-0.034 ± 0.1
Q13W	-0.104 ± 0.1
Q13Y	-0.198 ± 0.16
Q13C	-0.076 ± 0.14
Q13I	-0.204 ± 0.17
Q13N	0.029 ± 0.18
Q13D	-0.191 ± 0.13
Q13M	0.002 ± 0.13
Q13G	0.18 ± 0.084
C9L	-0.844 ± 0.13
C9W	-1.08 ± 0.18
C9N	-0.764 ± 0.21
C9E	-0.611 ± 0.15
C9V	-1.07 ± 0.15
C9H	-0.397 ± 0.23
C9F	-1.18 ± 0.22
C9Q	-1.04 ± 0.27
C9I	-0.774 ± 0.3

Variant	abundance fitness
C9R	-0.752 ± 0.12
C9A	-0.726 ± 0.12
C9T	-0.643 ± 0.13
C9G	-0.593 ± 0.095
C9K	-0.804 ± 0.18
C9Y	-0.489 ± 0.12
C9P	-0.558 ± 0.15
C9S	-0.809 ± 0.17
C9M	-0.803 ± 0.16
C9D	-0.618 ± 0.21
C12G	-0.752 ± 0.11
C12K	-0.652 ± 0.13
C12E	-0.866 ± 0.14
C12P	-0.901 ± 0.13
C12Q	-0.79 ± 0.13
C12Y	-0.891 ± 0.15
C12R	-1 ± 0.12
C12V	-0.759 ± 0.11
C12F	-0.788 ± 0.15
C12A	-0.688 ± 0.11
C12T	-0.776 ± 0.12
C12N	-0.318 ± 0.2
C12S	-1.04 ± 0.13
C12W	-1.02 ± 0.16

Variant	abundance fitness
C12H	-0.539 ± 0.21
C12L	-0.901 ± 0.1
C12I	-0.912 ± 0.16
C12M	-0.671 ± 0.13
Q6Y	-0.422 ± 0.2
Q6F	-0.234 ± 0.13
Q6S	-0.047 ± 0.12
Q6R	-0.183 ± 0.14
Q6L	-0.286 ± 0.11
Q6W	-0.421 ± 0.12
Q6P	0.25 ± 0.21
Q6D	-0.199 ± 0.23
Q6H	-0.286 ± 0.18
Q6A	0.193 ± 0.29
Q6V	-0.199 ± 0.12
Q6C	-0.153 ± 0.13
Q6E	-0.186 ± 0.22
Q6G	-0.313 ± 0.12
D4V	0.117 ± 0.089
D4R	0.054 ± 0.09
D4T	-0.008 ± 0.12
D4W	-0.014 ± 0.11
D4Y	-0.337 ± 0.37
